Results reported in doi:10.1101/2022.09.02.506315 (bioRxiv, 2022).

B1: Thermus thermophilus transcription termination factor Rho (natural protein, UniProt Q5SJE9 1-426, looked up)
chain: MRRKETLQETPLTYQELASKILPELHLLAQEAGIEGYKRMKKDQLIMALLERQTQGEGLRLVKGYLEISQDGYGFLTENLHNLESRVAIVSAGLIKQYALRAGDYVVGQARPPRENERYATLLKVEAVNNLDPEAAKNRPRFDELTPQFPDRQIRLETTPDELSTRVIDLLAPIGRGQRGLIVAPPKAGKTTLLKKIANAVLKNEPDIKVIVLLIDERPEEVTDFRESVQGAEVIASTFDEPPQNHIRVAEFVHERAKRIVEEGGHVMILLDSITRLARANNLVTPPTGRTLSGGLDSAALYFPKRFLGAARNIRGGGSLTILATALVETGSRMDDVIFEEFKGTGNMELHLSRRLEERRIFPAIDILKSGTRREELLLGEEVTHKMWLLRKVLADMDPAEAMEMLLARLARTKNNKEFLASLAAR
B2: Thermus thermophilus RNA polymerase ω subunit (natural protein)
chain: MAEPGIDKLFGMVDSKYRLTVVVAKRAQQLLRHGFKNTVLEPEERPKMQTLEGLFDDPNAVTWAMKELLTGRLVFGENLVPEDRLQKEMERLYPVEREE

Assays:
Assay in all cases: cryo-EM structure
cryo-EM structure = biological target: the molecule itself
[1] = biological target: Thermus thermophilus RNA polymerase β subunit (Thermus thermophilus, UniProt Q8RQE9 1-1119)
[2] = biological target: Thermus thermophilus RNA polymerase β' subunit (Thermus thermophilus, UniProt Q8RQE8 1-1524)
[3] = biological target: B1

Thermus thermophilus RNA polymerase β subunit, sequence (Q8RQE9 whole entry): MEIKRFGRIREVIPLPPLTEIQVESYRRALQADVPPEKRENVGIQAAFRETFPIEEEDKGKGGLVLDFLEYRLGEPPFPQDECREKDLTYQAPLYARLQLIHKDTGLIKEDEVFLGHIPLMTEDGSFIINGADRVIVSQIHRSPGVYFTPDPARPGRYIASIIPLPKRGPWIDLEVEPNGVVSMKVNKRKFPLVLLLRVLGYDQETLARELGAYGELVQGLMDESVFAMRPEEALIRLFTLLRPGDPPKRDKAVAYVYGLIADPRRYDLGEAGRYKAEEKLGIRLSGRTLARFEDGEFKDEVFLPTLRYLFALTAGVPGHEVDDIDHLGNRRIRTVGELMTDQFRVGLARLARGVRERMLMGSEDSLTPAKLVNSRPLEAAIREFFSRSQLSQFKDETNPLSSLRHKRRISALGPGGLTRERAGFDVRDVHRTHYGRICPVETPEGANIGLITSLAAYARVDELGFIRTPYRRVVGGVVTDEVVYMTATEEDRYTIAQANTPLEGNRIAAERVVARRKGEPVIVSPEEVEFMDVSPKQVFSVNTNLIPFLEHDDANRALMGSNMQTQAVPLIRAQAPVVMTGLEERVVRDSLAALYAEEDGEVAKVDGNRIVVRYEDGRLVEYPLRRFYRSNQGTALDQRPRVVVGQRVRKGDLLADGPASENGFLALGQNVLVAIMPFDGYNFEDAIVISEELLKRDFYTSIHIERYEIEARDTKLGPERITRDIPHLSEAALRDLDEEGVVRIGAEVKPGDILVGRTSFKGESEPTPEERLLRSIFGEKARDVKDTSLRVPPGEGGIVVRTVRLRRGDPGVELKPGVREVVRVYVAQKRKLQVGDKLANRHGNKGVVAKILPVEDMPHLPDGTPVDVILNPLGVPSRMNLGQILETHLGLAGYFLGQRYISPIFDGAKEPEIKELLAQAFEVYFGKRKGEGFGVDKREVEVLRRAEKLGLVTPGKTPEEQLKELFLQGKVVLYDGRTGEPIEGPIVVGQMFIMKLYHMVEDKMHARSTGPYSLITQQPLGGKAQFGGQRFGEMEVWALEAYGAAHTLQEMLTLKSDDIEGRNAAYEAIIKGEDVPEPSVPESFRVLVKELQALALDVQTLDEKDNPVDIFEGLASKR
Thermus thermophilus RNA polymerase β' subunit, sequence (Q8RQE8 whole entry): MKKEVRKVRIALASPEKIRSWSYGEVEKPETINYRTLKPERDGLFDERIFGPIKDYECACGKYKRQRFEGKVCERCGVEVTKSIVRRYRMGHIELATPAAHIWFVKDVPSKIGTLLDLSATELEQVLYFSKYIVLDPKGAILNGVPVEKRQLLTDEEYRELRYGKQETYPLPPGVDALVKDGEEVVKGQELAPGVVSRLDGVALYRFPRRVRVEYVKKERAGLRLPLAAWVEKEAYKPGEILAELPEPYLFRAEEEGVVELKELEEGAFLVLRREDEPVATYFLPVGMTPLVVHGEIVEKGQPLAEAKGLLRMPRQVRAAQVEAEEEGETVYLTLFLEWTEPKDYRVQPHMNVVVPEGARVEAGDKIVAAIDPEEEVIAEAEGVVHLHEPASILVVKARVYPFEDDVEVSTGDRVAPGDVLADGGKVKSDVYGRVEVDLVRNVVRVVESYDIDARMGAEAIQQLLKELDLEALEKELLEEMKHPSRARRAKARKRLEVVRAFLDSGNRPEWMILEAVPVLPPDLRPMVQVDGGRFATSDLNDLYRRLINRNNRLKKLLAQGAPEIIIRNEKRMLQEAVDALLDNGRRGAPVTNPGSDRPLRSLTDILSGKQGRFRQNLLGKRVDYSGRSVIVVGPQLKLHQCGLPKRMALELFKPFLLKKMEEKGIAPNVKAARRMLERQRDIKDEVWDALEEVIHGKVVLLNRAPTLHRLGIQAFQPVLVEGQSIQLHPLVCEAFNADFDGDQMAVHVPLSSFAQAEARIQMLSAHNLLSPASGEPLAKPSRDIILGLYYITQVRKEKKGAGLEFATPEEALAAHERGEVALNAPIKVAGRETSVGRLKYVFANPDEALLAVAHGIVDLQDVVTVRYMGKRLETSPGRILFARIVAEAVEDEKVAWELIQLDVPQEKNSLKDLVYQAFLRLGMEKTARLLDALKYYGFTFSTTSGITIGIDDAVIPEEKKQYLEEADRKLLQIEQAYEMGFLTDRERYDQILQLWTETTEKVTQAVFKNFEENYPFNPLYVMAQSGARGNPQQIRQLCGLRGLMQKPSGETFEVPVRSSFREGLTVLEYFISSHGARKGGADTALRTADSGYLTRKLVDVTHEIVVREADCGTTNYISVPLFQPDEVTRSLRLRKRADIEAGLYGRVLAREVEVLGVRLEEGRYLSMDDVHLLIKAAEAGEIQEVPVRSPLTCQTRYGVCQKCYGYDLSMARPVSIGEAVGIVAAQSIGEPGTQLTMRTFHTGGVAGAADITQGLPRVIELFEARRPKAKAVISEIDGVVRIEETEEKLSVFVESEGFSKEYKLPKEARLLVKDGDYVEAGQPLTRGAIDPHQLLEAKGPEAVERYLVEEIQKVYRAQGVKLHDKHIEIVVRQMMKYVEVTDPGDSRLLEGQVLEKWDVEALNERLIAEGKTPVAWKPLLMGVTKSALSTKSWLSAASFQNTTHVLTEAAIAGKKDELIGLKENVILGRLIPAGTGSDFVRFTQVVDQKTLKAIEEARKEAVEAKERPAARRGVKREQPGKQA

| Binder | stoichiometry N (cryo-EM structure) | binding result [1] | binding result [2] | binding result [3] |
| --- | --- | --- | --- | --- |
| B1 | 6 | binds | binds | – |
| B2 | – | – | – | binds |
